# Results taken from patent US20240383994A1.
# Columns and labels:
# [1] = biological target: human CD40 (hCD40), full length, on cells (human) (UniProt P25942); experiment: cell-based or functional assay
# [2] = biological target: cynoCD40-mFc (monkey (cyno)); experiment: flow cytometry, blocking of cynoCD40-mFc (2 µg/mL) binding to CHO-K1-cynoCD40L cells
# Sequence of cynoCD40-mFc (monkey (cyno)) (chain, as listed by the source limits assumed, form in doubt): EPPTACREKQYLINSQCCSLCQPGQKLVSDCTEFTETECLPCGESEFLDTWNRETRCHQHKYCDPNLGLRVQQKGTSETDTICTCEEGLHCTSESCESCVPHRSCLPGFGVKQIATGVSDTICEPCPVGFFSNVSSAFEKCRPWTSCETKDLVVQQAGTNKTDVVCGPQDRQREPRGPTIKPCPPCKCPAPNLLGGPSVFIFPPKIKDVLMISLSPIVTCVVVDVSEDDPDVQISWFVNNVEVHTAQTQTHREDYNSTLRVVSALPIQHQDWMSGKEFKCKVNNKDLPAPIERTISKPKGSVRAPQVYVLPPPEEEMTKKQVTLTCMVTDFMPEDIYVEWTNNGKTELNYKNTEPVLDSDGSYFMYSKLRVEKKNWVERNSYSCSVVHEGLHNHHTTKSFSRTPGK
# Sequence of human CD40 (hCD40), full length, on cells (human) (P25942 21-277 limits assumed): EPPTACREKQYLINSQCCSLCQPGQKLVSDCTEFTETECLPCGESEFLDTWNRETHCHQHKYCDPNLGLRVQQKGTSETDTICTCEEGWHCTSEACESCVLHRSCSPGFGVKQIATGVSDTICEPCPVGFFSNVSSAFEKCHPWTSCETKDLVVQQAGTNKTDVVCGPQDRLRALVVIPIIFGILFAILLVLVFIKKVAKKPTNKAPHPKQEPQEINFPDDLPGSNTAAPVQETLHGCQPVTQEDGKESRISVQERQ
"Inhibition, % of Ramos cell apoptosis at 0.064 ng/L (so in the source) [1]","Inhibition, % of Ramos cell apoptosis at 0.32 ng/L (so in the source) [1]","Inhibition, % of Ramos cell apoptosis at 1.6 ng/L (so in the source) [1]","Inhibition, % of Ramos cell apoptosis at 8 ng/L (so in the source) [1]","Inhibition, % of Ramos cell apoptosis at 40 ng/L (so in the source) [1]","Inhibition, % of Ramos cell apoptosis at 200 ng/L (so in the source) [1]","Inhibition, % of Ramos cell apoptosis at 1000 ng/L (so in the source) [1]",IC50 [2],Substance
-12%,-9%,-10%,0%,-20%,-6%,-3%,–,IgG4 isotype control antibody
–,–,–,–,–,–,–,24.1 nM,Iscalimab (CFZ533) (antibody)
